US20260008857A1 (FLAGSHIP PIONEERING INNOVATIONS VI, published 2026)
Like-named read-outs stand apart in the source and are kept apart here.

Experiments:
[1] = molecular target: T1, human IL-4Rα (interleukin 4 receptor subunit alpha) (human, UniProt P24394 26-232, limits assumed); assay: indirect ELISA on plate-coated recombinant human IL-4Rα (2 ug/mL), anti-human IgG Fc-HRP, A450
T1 sequence (looked up): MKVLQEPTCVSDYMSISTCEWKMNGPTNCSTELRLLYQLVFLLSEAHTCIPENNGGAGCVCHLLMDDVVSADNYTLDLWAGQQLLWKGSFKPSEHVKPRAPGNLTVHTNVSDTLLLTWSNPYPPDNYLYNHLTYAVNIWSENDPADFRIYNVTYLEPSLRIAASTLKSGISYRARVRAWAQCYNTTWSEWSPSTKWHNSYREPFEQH

[2] = molecular target: T1, human IL-4Rα (interleukin 4 receptor …); assay: as above; remark: listed apart in the source
[3] = molecular target: T1, human IL-4Rα (interleukin 4 receptor …); assay: SPR, Biacore 8K+ multi-cycle capture kinetics; antibody captured on goat anti-human polyclonal surface, human IL-4Rα as analyte, 25 C, 1:1 model
[4] = molecular target: T2, IL-4Rα on human primary cells (primary B cells, whole blood B and T cells, PBMCs) (human, UniProt P24394 26-825); assay: cell-based or functional assay
T2 sequence (looked up): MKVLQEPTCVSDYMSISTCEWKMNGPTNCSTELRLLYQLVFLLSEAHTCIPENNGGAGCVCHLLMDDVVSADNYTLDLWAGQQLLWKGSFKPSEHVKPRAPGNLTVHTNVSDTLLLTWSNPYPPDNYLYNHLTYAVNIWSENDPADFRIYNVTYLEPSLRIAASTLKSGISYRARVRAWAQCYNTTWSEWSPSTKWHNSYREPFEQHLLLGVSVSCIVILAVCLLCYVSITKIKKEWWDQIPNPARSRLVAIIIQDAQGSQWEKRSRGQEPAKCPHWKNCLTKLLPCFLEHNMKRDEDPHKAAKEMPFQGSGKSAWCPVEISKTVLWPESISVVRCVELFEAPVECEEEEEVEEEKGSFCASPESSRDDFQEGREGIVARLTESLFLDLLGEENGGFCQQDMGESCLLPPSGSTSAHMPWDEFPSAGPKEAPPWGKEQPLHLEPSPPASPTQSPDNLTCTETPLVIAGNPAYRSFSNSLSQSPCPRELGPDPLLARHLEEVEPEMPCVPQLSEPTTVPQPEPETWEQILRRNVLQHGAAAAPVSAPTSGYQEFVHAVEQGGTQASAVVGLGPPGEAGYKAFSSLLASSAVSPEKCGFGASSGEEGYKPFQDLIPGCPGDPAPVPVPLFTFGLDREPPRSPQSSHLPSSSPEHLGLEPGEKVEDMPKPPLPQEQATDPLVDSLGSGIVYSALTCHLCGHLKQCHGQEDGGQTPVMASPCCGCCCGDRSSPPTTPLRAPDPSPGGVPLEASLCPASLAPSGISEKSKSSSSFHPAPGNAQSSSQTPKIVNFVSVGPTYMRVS

[5] = molecular target: T1, human IL-4Rα (interleukin 4 receptor …); assay: SPR, Carterra LSA non-regenerative capture kinetics; antibody captured on goat anti-human polyclonal lawn, human IL-4Rα as analyte, 25 C, 1:1 model; average ± SD of technical replicates
[6] = molecular target: T1, human IL-4Rα (interleukin 4 receptor …); assay: cell-based or functional assay

B1: AB-3c (antibody, human IgG4 S228P, kappa)
heavy chain: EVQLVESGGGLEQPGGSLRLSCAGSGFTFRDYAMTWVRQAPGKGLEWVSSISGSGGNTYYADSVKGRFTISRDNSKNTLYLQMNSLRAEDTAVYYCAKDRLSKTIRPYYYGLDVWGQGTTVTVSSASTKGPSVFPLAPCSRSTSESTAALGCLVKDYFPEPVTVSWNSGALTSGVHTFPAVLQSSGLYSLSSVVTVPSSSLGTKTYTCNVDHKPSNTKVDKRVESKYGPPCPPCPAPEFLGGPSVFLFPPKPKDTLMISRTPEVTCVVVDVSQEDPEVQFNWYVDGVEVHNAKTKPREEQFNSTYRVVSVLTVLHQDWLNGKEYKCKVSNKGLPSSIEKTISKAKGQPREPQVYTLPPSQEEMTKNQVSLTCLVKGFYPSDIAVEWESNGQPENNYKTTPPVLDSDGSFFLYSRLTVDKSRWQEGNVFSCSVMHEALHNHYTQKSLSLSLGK
light chain: DIVMTQSPLSLPVTPGEPASISCRSSQSLLYSTGYNYLDWYLQKSGQSPQLLIYLGSNRASGVPDRFSGSGSGTDFTLKISRVEAEDVGFYYCMQSLSTPYTFGQGTKLEIKRTVAAPSVFIFPPSDEQLKSGTASVVCLLNNFYPREAKVQWKVDNALQSGNSQESVTEQDSKDSTYSLSSTLTLSKADYEKHKVYACEVTHQGLSSPVTKSFNRGEC
notes: hIgG4 WT ('c')
For B1, the “EC50 (read off the curve)” value [1] was roughly 0.1 nM.

B2: AB-9d (antibody, human IgG1, kappa)
heavy chain: not shown
light chain: DIVMTQSPLSLPVTPGEPASISCRSSQSLLYSLGYNYLDWYLQKSGQSPQLLIYLASNRASGVPDRFSGSGSGTDFTLKISRVEAEDVGFYYCMQSLQTPYTFGQGTKLEIKRTVAAPSVFIFPPSDEQLKSGTASVVCLLNNFYPREAKVQWKVDNALQSGNSQESVTEQDSKDSTYSLSSTLTLSKADYEKHKVYACEVTHQGLSSPVTKSFNRGEC
notes: hIgG1 ('d')
B2 was tested, and the “EC50 (read off the curve)” value [2] was roughly 0.02 nM.

B3: AB-13c (antibody, human IgG4 S228P, kappa)
heavy: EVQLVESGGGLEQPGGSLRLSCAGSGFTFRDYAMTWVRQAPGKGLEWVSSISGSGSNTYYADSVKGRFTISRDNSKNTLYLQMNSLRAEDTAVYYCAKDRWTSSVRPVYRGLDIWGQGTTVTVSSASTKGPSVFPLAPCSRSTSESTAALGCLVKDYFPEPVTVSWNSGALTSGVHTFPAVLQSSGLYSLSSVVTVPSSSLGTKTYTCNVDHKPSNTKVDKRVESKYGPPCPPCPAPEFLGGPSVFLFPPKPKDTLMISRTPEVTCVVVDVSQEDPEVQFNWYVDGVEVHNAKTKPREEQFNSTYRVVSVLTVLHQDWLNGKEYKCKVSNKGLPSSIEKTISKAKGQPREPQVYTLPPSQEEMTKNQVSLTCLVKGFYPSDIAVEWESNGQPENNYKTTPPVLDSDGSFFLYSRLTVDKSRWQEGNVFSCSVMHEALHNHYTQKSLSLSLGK
light: DIVMTQSPLSLPVTPGEPASISCRSSQSLLYSHGYNYLDWYLQKSGQSPQLLIYLASNRASGVPDRFSGSGSGTDFTLKISRVEAEDVGFYYCMQSLYTPYTFGQGTKLEIKRTVAAPSVFIFPPSDEQLKSGTASVVCLLNNFYPREAKVQWKVDNALQSGNSQESVTEQDSKDSTYSLSSTLTLSKADYEKHKVYACEVTHQGLSSPVTKSFNRGEC
notes: hIgG4 wild type, kappa
For B3, the Kd [3] was 0.0266 nM, the koff [3] was 2.22e-05 s⁻¹ and the kon [3] was 836000 M⁻¹ s⁻¹. For the same binder, the “EC50 (read off the curve)” value [1] was roughly 0.05 nM, the “Inhibition of CD23 Expression by Primary B cells (IC50), Donor 13” value [4] was 24.9 nM and the “Inhibition of CD23 Expression by Primary B cells (IC50), Donor 52” value [4] was 23 nM. The “Inhibition of CD23 Expression by Primary B cells (IC50), Donor 53” value [4] was 26.2 nM, the “Inhibition of CD23 Expression by Primary B cells (IC50), Donor 56” value [4] was 25.8 nM and the Kd [5] was no more than 0.12 nM.

B4: AB-9c (antibody, human IgG4 S228P, kappa)
heavy: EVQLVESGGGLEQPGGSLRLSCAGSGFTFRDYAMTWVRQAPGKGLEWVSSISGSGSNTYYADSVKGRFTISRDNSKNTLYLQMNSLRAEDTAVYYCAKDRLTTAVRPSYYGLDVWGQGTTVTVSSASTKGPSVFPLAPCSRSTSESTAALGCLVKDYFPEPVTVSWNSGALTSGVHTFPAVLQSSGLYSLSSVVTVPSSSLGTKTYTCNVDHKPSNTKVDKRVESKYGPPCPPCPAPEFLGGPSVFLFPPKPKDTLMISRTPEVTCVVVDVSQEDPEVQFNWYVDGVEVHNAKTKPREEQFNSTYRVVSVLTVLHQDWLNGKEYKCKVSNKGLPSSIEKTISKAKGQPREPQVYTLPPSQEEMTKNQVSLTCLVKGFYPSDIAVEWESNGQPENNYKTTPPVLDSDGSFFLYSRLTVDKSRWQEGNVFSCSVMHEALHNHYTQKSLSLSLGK
light: DIVMTQSPLSLPVTPGEPASISCRSSQSLLYSLGYNYLDWYLQKSGQSPQLLIYLASNRASGVPDRFSGSGSGTDFTLKISRVEAEDVGFYYCMQSLQTPYTFGQGTKLEIKRTVAAPSVFIFPPSDEQLKSGTASVVCLLNNFYPREAKVQWKVDNALQSGNSQESVTEQDSKDSTYSLSSTLTLSKADYEKHKVYACEVTHQGLSSPVTKSFNRGEC
notes: hIgG4 WT, kappa
With B4 the “EC50 (read off the curve)” value [1] was roughly 0.02 nM and the Kd [5] was 0.63 nM.

B5: AB-12d (antibody, human IgG1, kappa)
heavy chain: not shown
light chain: DIVMTQSPLSLPVTPGEPASISCRSSQSLLYSQGYNYLDWYLQKSGQSPQLLIYLASNRASGVPDRFSGSGSGTDFTLKISRVEAEDVGFYYCMQSLFTPYTFGQGTKLEIKRTVAAPSVFIFPPSDEQLKSGTASVVCLLNNFYPREAKVQWKVDNALQSGNSQESVTEQDSKDSTYSLSSTLTLSKADYEKHKVYACEVTHQGLSSPVTKSFNRGEC
B5 was tested, and the “IC50 (read off the curve)” value [6] was roughly 0.4 nM.

B6: AB-1d (antibody, human IgG1, kappa, V domains shown)
VH: EVQLVESGGGLEQPGGSLRLSCAGSGFTFSDYAMTWVRQAPGKGLEWVSSISGSGGNTYYADSVKGRFTISRDNSKNTLYLQMNSLRAEDTAVYYCAKDALTIAIRPYYYGLDVWGQGTTVTVSS
VL: DIVMTQSPLSLPVTPGEPASISCRSSQSLDYSYGYNYLDWYLQKSGQSPQLLIYLASNRASGVPDRFSGSGSGTDFTLKISRVEAEDVGFYYCMQSLSTPYTFGQGTKLEIKR
notes: hIgG1 ('d')
B6: binds [2].

B7: AB-10c (antibody, human IgG4 S228P, kappa, V domains shown)
VH: EVQLVESGGGLEQPGGSLRLSCAGSGFTFRDYAMTWVRQAPGKGLEWVSSISGSGDKTYYADSVKGRFTISRDNSKNTLYLQMNSLRAEDTAVYYCARDRLSSSARPVYVGLDVWGQGTTVTVSS
VL: DIVMTQSPLSLPVTPGEPASISCRSSQSLLYSVGKNYLDWYLQKSGQSPQLLIYLASNRASGVPDRFSGSGSGTDFTLKISRVEAEDVGFYYCMQDLFHPYTFGQGTKLEIKR
notes: hIgG4 WT, kappa
B7 was tested, and the Kd [5] was 546 nM.
